Results from article PMC3765947 (Current Biology, 2012).

Molecular target: purified FMNL2 N terminus (FMNL2N, aa 2-379) (human (from the printed UniProt …, UniProt Q96PY5-3 2-379))
Test: ITC

Chain of purified FMNL2 N terminus (FMNL2N, aa 2-379) (human (Q96PY5 2-379): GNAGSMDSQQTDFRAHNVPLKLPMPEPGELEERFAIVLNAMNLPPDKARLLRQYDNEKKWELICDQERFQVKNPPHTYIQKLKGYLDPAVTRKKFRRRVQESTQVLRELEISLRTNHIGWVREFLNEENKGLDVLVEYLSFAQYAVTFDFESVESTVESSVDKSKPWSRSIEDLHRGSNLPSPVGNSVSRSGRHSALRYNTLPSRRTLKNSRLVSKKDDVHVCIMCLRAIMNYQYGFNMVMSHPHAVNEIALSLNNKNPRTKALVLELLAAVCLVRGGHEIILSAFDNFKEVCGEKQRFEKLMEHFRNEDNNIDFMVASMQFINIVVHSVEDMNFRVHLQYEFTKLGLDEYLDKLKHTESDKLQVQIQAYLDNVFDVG

B1: Cdc42 (nucleotide-loaded, for ITC) (natural protein)
chain: not shown
- Kd: 3.13 ± 0.38 µM
- dH: -5.33 ± 0.16 kcal/mol
